Reference: patent publication EP0504914A2 (E.R. SQUIBB & SONS, INC., dated 1992)

How the values were obtained:
[1] = molecular target: T1, human trk proto-oncogene product gp140^trk (human, UniProt P04629 33-796); assay: cell-based or functional assay
[2] = molecular target: T2, mouse trkB tyrosine protein kinase gp145^trkB (mouse, UniProt P15209 32-821); assay: cell-based or functional assay
[3] = molecular target: T3, porcine trkC product gp145^trkC (porcine); assay: Scatchard analysis, [125I]-NT-3 on R4-31 cells at 4°C, low affinity sites
T3 construct: Expressed from pFL20 in NIH3T3 cells (R4-31); also called trkC receptor

[4] = molecular target: T1, human trk proto-oncogene product …; assay: cell-based or functional assay; remark: listed apart in the source
[5] = molecular target: T2, mouse trkB tyrosine protein kinase …; assay: cell-based or functional assay; remark: listed apart in the source
[6] = molecular target: T3, porcine trkC product gp145^trkC; assay: Scatchard analysis, [125I]-NT-3 on R4-31 cells at 4°C, high affinity sites
[7] = molecular target: T1, human trk proto-oncogene product …; assay: competition with [125I]-NGF on E25-48 cells
[8] = molecular target: mutant mouse trkB receptor gp145^trkB/S345 (mouse, UniProt P15209 32-821); assay: cell-based or functional assay
[9] = molecular target: T1, human trk proto-oncogene product …; assay: Scatchard analysis, [125I]-βNGF on Sf9 cells infected with pAcS2, high affinity receptors
[10] = molecular target: T1, human trk proto-oncogene product …; assay: Scatchard analysis, [125I]-βNGF on E25-427 cells at 4°C, high affinity receptors
[11] = molecular target: T1, human trk proto-oncogene product …; assay: Scatchard analysis, [125I]-βNGF on Sf9 cells infected with pAcS2, low affinity receptors
[12] = molecular target: T1, human trk proto-oncogene product …; assay: Scatchard analysis, [125I]-βNGF on E25-48 cells at 4°C, high affinity receptors
[13] = molecular target: T1, human trk proto-oncogene product …; assay: Scatchard analysis, [125I]-βNGF on E25-48 cells at 4°C, low affinity receptors
[14] = molecular target: T2, mouse trkB tyrosine protein kinase …; assay: [125I]-βNGF binding to cells at 4°C
[15] = molecular target: T1, human trk proto-oncogene product …; assay: cell-based or functional assay; remark: listed apart in the source
[16] = molecular target: T4, rat low affinity NGF receptor gp80^LNGFR (rat, UniProt P07174 30-425); assay: Scatchard analysis, [125I]-βNGF on PC12 cells at 4°C, low affinity receptors
T4 construct: whole, on cells
T4 sequence (looked up): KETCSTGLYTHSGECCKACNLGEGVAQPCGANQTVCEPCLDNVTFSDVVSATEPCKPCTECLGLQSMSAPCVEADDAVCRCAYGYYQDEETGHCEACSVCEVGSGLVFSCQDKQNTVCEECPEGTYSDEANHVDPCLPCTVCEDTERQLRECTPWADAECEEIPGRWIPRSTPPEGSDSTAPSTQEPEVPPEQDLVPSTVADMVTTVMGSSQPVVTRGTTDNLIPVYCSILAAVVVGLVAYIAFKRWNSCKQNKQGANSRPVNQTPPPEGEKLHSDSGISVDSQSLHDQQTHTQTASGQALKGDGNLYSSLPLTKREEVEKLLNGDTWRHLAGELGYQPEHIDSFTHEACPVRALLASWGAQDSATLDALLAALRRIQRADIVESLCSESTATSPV

[17] = molecular target: T5, endogenous trk proto-oncogene product of rat PC12 cells (rat, UniProt P35739 33-799); assay: Scatchard analysis, [125I]-βNGF on PC12 cells at 4°C, high affinity receptors
T5 construct: whole, on cells; also called PC12 endogenous trk proto-oncogene product; gp140^trk of PC12 cells

[18] = molecular target: T1, human trk proto-oncogene product …; assay: Scatchard analysis, [125I]-βNGF on E25-427 cells at 4°C, low affinity receptors

T1 sequence (P04629 33-796): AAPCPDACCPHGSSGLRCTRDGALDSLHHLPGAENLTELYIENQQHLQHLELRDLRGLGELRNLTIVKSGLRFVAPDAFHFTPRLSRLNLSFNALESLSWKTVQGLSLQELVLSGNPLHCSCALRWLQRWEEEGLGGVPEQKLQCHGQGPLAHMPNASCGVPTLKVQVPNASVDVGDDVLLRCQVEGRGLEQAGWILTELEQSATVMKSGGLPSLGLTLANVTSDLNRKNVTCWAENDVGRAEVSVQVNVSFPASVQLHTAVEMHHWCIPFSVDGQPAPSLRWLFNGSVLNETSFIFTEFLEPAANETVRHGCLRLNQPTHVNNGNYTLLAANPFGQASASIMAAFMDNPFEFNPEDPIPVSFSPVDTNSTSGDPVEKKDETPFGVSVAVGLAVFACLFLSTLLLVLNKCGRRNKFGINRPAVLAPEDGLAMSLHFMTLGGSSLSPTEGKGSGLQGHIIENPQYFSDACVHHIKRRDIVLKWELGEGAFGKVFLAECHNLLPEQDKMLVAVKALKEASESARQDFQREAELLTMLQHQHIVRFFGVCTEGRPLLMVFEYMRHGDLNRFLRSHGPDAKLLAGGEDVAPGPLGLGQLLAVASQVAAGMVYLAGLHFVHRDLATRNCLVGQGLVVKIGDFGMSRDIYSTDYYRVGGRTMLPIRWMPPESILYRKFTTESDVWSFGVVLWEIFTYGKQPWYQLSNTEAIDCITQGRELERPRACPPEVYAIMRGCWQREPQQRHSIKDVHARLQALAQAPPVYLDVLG
T2 sequence (P15209 32-821): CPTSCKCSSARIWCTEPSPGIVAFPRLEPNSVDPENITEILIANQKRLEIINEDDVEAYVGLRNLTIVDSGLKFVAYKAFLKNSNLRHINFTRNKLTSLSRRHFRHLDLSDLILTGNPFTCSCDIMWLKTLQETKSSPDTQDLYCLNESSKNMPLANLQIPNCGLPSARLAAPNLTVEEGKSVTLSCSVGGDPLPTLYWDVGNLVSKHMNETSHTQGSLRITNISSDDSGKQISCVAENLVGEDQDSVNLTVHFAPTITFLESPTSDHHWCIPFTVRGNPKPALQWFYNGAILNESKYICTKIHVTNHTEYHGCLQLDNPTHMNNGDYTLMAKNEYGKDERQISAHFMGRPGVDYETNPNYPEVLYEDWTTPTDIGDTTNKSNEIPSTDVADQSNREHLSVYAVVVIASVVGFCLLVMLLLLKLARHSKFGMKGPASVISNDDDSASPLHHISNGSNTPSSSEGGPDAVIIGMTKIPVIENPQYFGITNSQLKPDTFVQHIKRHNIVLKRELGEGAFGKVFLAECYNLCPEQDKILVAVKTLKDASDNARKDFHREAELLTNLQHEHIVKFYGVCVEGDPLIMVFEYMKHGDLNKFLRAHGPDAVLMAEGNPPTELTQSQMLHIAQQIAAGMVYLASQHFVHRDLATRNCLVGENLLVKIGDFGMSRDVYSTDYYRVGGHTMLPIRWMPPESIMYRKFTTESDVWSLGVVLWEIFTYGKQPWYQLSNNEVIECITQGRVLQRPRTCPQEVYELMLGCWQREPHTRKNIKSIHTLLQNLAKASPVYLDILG
Sequence of mutant mouse trkB receptor gp145^trkB/S345 (P15209 other isoform, or with tags, fused parts or gaps mutant): as the sequence (P15209 32-821) above, with C314S counted along it
T5 sequence (P35739 33-799): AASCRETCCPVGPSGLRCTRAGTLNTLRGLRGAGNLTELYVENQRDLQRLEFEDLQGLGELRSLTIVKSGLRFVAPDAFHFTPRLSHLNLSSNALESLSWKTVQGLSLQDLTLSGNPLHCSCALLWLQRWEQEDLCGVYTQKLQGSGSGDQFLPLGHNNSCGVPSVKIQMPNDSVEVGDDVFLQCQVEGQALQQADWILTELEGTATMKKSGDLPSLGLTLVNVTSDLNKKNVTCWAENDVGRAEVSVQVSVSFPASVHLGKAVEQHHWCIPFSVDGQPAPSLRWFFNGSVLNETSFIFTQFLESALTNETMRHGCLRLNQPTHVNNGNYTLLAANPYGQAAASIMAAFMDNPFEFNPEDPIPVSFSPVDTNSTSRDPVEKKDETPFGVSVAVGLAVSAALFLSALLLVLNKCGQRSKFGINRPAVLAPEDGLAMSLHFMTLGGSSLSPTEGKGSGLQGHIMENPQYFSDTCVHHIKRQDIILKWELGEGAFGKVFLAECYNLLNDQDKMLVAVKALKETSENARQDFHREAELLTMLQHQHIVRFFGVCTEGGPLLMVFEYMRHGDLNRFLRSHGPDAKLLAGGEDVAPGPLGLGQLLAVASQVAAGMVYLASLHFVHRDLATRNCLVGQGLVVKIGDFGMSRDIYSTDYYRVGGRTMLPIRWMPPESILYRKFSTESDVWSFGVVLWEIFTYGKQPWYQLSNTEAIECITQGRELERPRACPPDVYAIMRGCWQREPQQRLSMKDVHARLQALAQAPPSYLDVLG

B1: human neurotrophin-3 (NT-3) (ligand, UniProt P20783 139-257, looked up)
chain: YAEHKSHRGEYSVCDSESLWVTDKSSAIDIRGHQVTVLGEIKTGNSPVKQYFYETRCKEARPVKNGCRGIDDKHWNSQCKTSQTYVRALTSENNKLVGWRWIRIDTSCVCALSRKIGRT
modifications: 125I (Bolton-Hunter) where used as tracer
notes: mature; also called [125I]-labeled NT-3
Q: Which results are given for B1?
A: efficiency in transformation assays with pDM69, against NGF [1]: 200 fold less efficient than NGF; transformation efficiency with pFRK44, against BDNF [2]: 500 fold lower; Kd [3]: 4 nM; transforming activity of neurotrophic factor DNA in the presence of trk DNA [4]: 300 ffu per µg of DNA; transforming activity of neurotrophic factor DNA in the presence of trkB DNA [5]: 100 ffu per µg of DNA; Kd [6]: 0.026 nM

B2: Xenopus laevis neurotrophin-4 (XNT-4) (ligand, UniProt P24727 114-236, looked up)
chain: ASGSDSVSLSRRGELSVCDSVNVWVTDKRTAVDDRGKIVTVMSEIQTLTGPLKQYFFETKCNPSGSTTRGCRGVDKKQWISECKAKQSYVRALTIDANKLVGWRWIRIDTACVCTLLSRTGRT
Q: B2 was tested. Which “transforming activity with gp145^trkB, against BDNF” value [2] did it give?
A: 5 fold lower than BDNF

B3: human brain-derived neurotrophic factor (BDNF) (ligand, UniProt P23560 129-247, looked up)
chain: HSDPARRGELSVCDSISEWVTAADKKTAVDMSGGTVTVLEKVPVSKGQLKQYFYETKCNPMGYTKEGCRGIDKRHWNSQCRTTQSYVRALTMDSKKRIGWRFIRIDTSCVCTLTIKRGR
modifications: 125I (Bolton-Hunter) where used as tracer in Example 5
notes: mature; also called [125I]-BDNF
Q: What does the source list for B3?
A: binding result [7]: no binding (tested: 500 ng/ml); efficiency in mediating the response to BDNF, against wild type gp145^trkB [8]: ~10 fold less efficient than wild type; transforming activity of neurotrophic factor DNA in the presence of trk DNA [4]: < 1 ffu per µg of DNA; transforming activity of neurotrophic factor DNA in the presence of trkB DNA [5]: 40000 ffu per µg of DNA

B4: murine 2.5S NGF (βNGF) (ligand, UniProt P01139 122-241, looked up)
chain: SSTHPVFHMGEFSVCDSVSVWVGDKTTATDIKGKEVTVLAEVNINNSVFRQYFFETKCRASNPVESGCRGIDSKHWNSYCTTTHTFVKALTTDEKQAAWRFIRIDTACVCVLSRKATRRG
modifications: 125I label where used as tracer
notes: mature; The background says that βNGF exists as a 26,000 d homodimer; also called [125I]-labeled βNGF; [125I]-NGF
Q: With B4 as the binder, how does the Kd [9] read?
A: 0.42 nM

Q: What about the Kd [10] of the same binder?
A: 0.12 nM

Q: What about the Kd [11] of the same binder?
A: 13.7 nM

Q: And the Kd [12]?
A: 0.09 nM

Q: And the Kd [13]?
A: 2.4 nM

Q: Does B4 bind [14]?
A: no binding (tested: 1 nM)

Q: And the “NGF stimulation of agar colonies, 10^3 E25-48 cells” value [15]?
A: 9 fold

Q: What about the “NGF stimulation of agar colonies, 10^4 E25-48 cells” value [15] of the same binder?
A: 7 fold

Q: What about the Kd [16] of the same binder?
A: 33.2 nM

Q: And the Kd [17]?
A: 0.3 nM

Q: What about the Kd [18] of the same binder?
A: 7 nM

Q: What about the “transforming activity of neurotrophic factor DNA in the presence of trk DNA” value [4] of the same binder?
A: 20000 ffu per µg of DNA

Q: What about the “transforming activity of neurotrophic factor DNA in the presence of trkB DNA” value [5] of the same binder?
A: < 1 ffu per µg of DNA
